In US20120282637A1 (Sanofi, published 2012):

B1: 210 RAGE-1 (antibody, V domains shown)
VH: EIQLQQTGPELVKPGASVKISCKASGYSFTDYIMVWVKQSHGKSLEWIGTINPYYGSTSYNLKFKGKATLTVDKSSSTANMQLNSLTSEDSAVYYCARLRLYAMDYWGQGTSVTVSS
VL: QAVVTQESALTTSPGETVTLTCRSSTGAVTTSNYANWVQEKPDHLFTGLIGGTNNRAPGVPARFSGSLIGDKAALTITGAQTEDEAIYFCALWYSNHFWVFGGGTKLTVL
notes: Anti-RAGE monoclonal antibody from a hybridoma, captured by anti-mouse Fc; also called Protein 210 RAGE-1
B2: 259 RAGE-1 (antibody, V domains shown)
VH: QVQLQQSGAELVRPGTSVKVSCKASGYAFTNYLIDWVNQRPGQGLEWIGVINPGSGGTNYNEKFTGKATLTADKSSSTAYMQLSSLTSDDSAVYFCARRRVDTMDYWGQGTSVTVSS
VL: QAVVTQESALTTSPGETVTLTCRSSTGAVTTSNYANWVQEKPDHLFTGLIGGTNNRAPGVPARFSGSLIGDKAALTITGAQTEDEAIYFCALWYSNHWVFGGGTKLTVL
notes: Anti-RAGE monoclonal antibody from a hybridoma, captured by anti-mouse Fc; also called Protein 259 RAGE -1
B3: 529 RAGE-1 (antibody, V domains shown)
VH: EIQLQQTGPELVKPGASVKISCKASGYSFTDYIMLWVKQSHGKSLEWIGNINPYYGSTFYNLKFKGKATLTVDKSSSTAYMQLNSLTSEDSAVYYCARSDYWYFDVWGAGTTVTVSS
VL: QAVVTQESALTTSPGETVTLTCRSSTGAVTTSNYANWVQEKPDHLFTGLIGGTNNRSPGVPARFSGSLIGDKAALTITGAQTEDEAIYFCALWYSNHLVFGGGTKLTVL
notes: Anti-RAGE monoclonal antibody from a hybridoma, captured by anti-mouse Fc
B4: 283 RAGE-1 (antibody, V domains shown)
VH: QVQLQQSGAELVRPGTSVKVSCKASGYAFTNYLIEWVKQRPGQGLEWIGVINPGSGGTNYSERFKGKATLTADKSSSTAYMQLSSLTSDDSAVYFCASYRYDGGMDYWGQGTSVTVSS
VL: QAVVTQESALTTSPGETVTLTCRSSTGAVTTSNYANWVQEKPDHLFTGLIRGTNNRAPGVPARFSGSLIGDKAALTITGAQTEDEAIYFCALWYSNHWVFGGGTKLTVL
notes: Anti-RAGE monoclonal antibody from a hybridoma, captured by anti-mouse Fc; also called Protein 283 RAGE-1
B5: 501-4 RAGE-1 (antibody, V domains shown)
VH: EVMLVDSGGGLVKPGGSLKLSCAASGFTFRSYAMSWVRQTPEKRLEWVATISSGGSYTYYPDSVRGRFTTSRDNGKNTLYLQMSSLRSEDTAMYYCARHGGNYSAWFTYWGQGTLVTVSA
VL: QAVVTQESALTTSPGETVTLTCRSSTGAVTTSNYANWVQEKPDHLFTGLIGGTNNRAPDVPARFSGSLIGDKAALTITGAQTEDEAIYFCALWYSNHWVFGGGTKLTVL
notes: as for B3
B6: 184 RAGE-1 (antibody, V domains shown)
VH: QVQLQQSGAELVRPGTSVKVSCKASGYAFTNYLIEWVKQRPGQGLEWIGMINPGSGGTNYNEKFKGKATLTADKSSSTAYMQLSSLTSDDSAVYFCARGRGGHYRYFDVWGAGTTVTVSS
VL: DIVLTQSPASLAVSLGQRATISCRASKSVSTSGYSYMHWYQQKPGQPPKLLIYLASHLESGVPARFSGSGSGTDFSLNIHPVEEEDAATYYCQHSRELPWTFGGGTKLEIK
notes: Anti-RAGE monoclonal antibody from a hybridoma, captured by anti-mouse Fc; also called Protein 184 RAGE-1
B7: 499 RAGE-1 (antibody, V domains shown)
VH: EVQLQQSGTVLARPGASVKMSCKASGYTFTSYWMHWVKQRPGQGLEWIGAIYPGDSDTYYNQKFKGKAKLTAVTSTSTAYMELSSLTNEDSAVYYCTRNWDYWGQGTTLTVSS
VL: DIVMTQSHKFMSTSVGDRVSITCKASQDVSTAVAWYQQKPGQSPKLLIYSASYRYTGVPDRFTGSGSGTDFTFTISSVQAEDLAVYYCQQHYNTPRTFGGGTKLEIK
notes: Anti-RAGE monoclonal antibody from a hybridoma, captured by anti-mouse Fc; also called Protein 499 RAGE-1
B8: 183 RAGE-1 (antibody, V domains shown)
VH: EVQLQQSGTVLARPGASVKMSCKASGYSFTSYWMHWVKQRPGQGLEWIGAIFPGNSDTTYNQKFKGKAKLTAVTSASTAYMELSSLTNEDSAVYYCTGLRRGFPYWGQGTLVTVSV
VL: NIVMTQSPKSMSMSVGERVTLSCKASENVGTYVSWYQQKPEQSPKLLIYGASNRYTGVPDRFTGSGSATDFTLTISSVQAEDLADYHCGQSYSYPYTFGGGTKLEIK
notes: Anti-RAGE monoclonal antibody from a hybridoma, captured by anti-mouse Fc; also called Protein 183 RAGE-1

What follows are binders tested against T1, sRAGE (V-C1-C2) lot LP08062 (human, UniProt Q15109 23-331, limits assumed) (assay: SPR (Biacore), mAb captured on anti-mouse Fc, sRAGE 15 nM, Langmuir 1:1).
T1 construct: domain: V-C1-C2; also called Human RAGE; LP08062 (Rage)
T1 sequence (Q15109 23-331 limits assumed): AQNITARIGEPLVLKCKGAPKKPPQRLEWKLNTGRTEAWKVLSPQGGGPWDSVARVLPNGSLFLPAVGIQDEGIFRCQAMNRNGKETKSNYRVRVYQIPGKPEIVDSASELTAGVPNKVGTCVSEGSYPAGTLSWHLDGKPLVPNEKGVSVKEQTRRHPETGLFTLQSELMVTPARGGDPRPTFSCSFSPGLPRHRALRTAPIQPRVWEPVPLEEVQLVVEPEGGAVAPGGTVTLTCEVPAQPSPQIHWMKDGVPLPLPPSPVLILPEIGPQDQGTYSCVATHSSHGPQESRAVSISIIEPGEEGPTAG
Protocol: The assay is based on a capture assay using immobilized anti-mouse Fc IgG on CM5 chip. For immobilization of anti-Fc antibody HBS-EP was used as running buffer. Standard amine coupling to a CM5 chip was carried out at a contact time of 11 min and a flow rate of 10 μl/min. 10 mM Sodium Acetate pH 5.0 was used as immobilization buffer. The protein concentration (anti-mouse Fc, Biacore BR-1008-38) was 100 μg/mL.
For binding analysis SN anti-RAGE mAb diluted in running buffer at 1/10 (flow rate 5 μl/min) and sRAGE (V-C1-C2) lot LP08062 diluted in running buffer at 15 nM (flow rate 50 μl/min) was used as […], respectively (running buffer: HBS-P+BSA 12 mg/mL+CM Dextran 12 mg/mL and Regeneration solution: 10 mM Glycine pH 1.7). Langmuir 1:1 analysis was used as fitting model.
Binder B1 has a Kd of 0.276 nM, a koff of 0.00107 s⁻¹ and a kon of 3.88e+06 M⁻¹ s⁻¹. For B2, the Kd was 0.516 nM, the koff was 0.00224 s⁻¹ and the kon was 4.34e+06 M⁻¹ s⁻¹. Work on B3 yielded a Kd of 0.552 nM, a koff of 0.00169 s⁻¹ and a kon of 3.06e+06 M⁻¹ s⁻¹. B4 was tested, and the Kd was 0.371 nM, the koff was 0.00196 s⁻¹ and the kon was 5.29e+06 M⁻¹ s⁻¹. With B5 the Kd was 0.0858 nM, the koff was 0.000103 s⁻¹ and the kon was 1.2e+06 M⁻¹ s⁻¹. For B6, the Kd was 0.595 nM, the koff was 0.00163 s⁻¹ and the kon was 2.74e+06 M⁻¹ s⁻¹. For B7, the Kd was 0.793 nM, the koff was 0.00157 s⁻¹ and the kon was 1.98e+06 M⁻¹ s⁻¹. B8 gave a Kd of 1.73 nM, a koff of 0.00273 s⁻¹ and a kon of 1.58e+06 M⁻¹ s⁻¹.
